In the nanobody polyreactivity screen of Harvey et al. (2022):

Experiment: yeast display, Sf9 membrane polyspecificity reagent, FACS + sequencing; frameworks hold sequencing errors
Method in brief: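 Using colony PCR, genes from sorted yeast display clones were amplified, then sequenced on MiSeq at 2 × 250 and filtered by CDR length. The clones had been stained with 10% biotinylated, detergent-solubilized Sf9 membrane reagent for 1 hour at 4 °C and sorted by FACS into low and high (top ~1%) gates on anti-HA and streptavidin fluorescence. Polyreactivity labels come from the gate of origin.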

Sequence	polyreactivity (PSR sort gate)
QVQLVESGGGLVQAGGSLRLSCAASGIIFAQYTMGWYRQAPGKERELVAAINRNGGSTYYADSVKGRFTISRDNAKNSVYLQMNSLKPEDTAVYYCNADALGFRYDYWGQGTQVTVSS	low polyreactivity
QVQLVESGGGLVQAGGSLRLSCAASGIIFARYAMGWYRQAPGKERELVASINWTGGNTYADSVKGRFTISRDNAKNSVYLQMNSLNPEDTAVYYCARDFSPGSSDPNASISFDHWGQGTQVTVSS	low polyreactivity
QVQLVESGGGLVQAGGSLRLSCAASGIIFAWNVRGWYRQAPGKERELVAAITQSGGGTYYADSVKGRFTISRDNAKNTVYLLMYSLKPEDTGFYYCAAVGYQFYRYVWVDEFDSWGQGTQVTVSS	low polyreactivity
QVQLVESGGGLVQAGGSLRLSCAASGIIFAWYVMGWYRQAPGKERELVAAITQSGGSTFYADSVKGRFTISRDNAKNTVYLQMNSLKPEDTAVYYCNTEDFFNVPEMDSWGQGTQVTVSS	low polyreactivity
QVQLVESGGGLVQAGGSLRLSCAASGIIFAYAMGWYRQAPGKERELVAAISGRDGSTYYADSVKGRFTISRDNAKNTVYLQMNSLKPEDTAVYYCNAVRGSYSWQMYYWGQGTQVTVSS	low polyreactivity
QVQLVESGGGLVQAGGSLRLSCAASGIIFAYNVIGWSRPAPGKERELVAAIRWGGGSTYADSVKGRFTISRDNAKNTVYLQMNSLKPEDTAVYYCATRYRSYYAKYGYNYWGQGTQVTVSS	high polyreactivity
QVQLVESGGGLVQAGGSLRLSCAASGIIFAYYAMGWYRQAPGKERELVAAITSGGSTHYADSVKGRFTISRDNAKNTVYLKMNSLKPEDTAVYYCAADVSYYASLFDYGGQGTQVTVSS	low polyreactivity
QVQLVESGGGLVQAGGSLRLSCAASGIIFAYYAMGWYRQAPGKERELVGTNYADSVKGRFTISRDNAKNTVYLQMNSLKPEDTAVYYCAADFLYYSSGGKMDYWGQGTQVTVSS	low polyreactivity
QVQLVESGGGLVQAGGSLRLSCAASGIIFCRYAMGWYRQAPGKERELVATITWRGGSTYYADSVKGRFTISRDNAKNTVYLQMNSLKPEDTAVYYCAADTRQSRSFRARDYWGQGTQVTVSS	low polyreactivity
QVQLVESGGGLVQAGGSLRLSCAASGIIFDDYALGWYRPAPGKVRELVAAINSNGGTTYYADSVKGRFTISRDNAKNTVYLQMNSLKPEDTAVYYCAARPYRIGRYGYDYDYWGQGTQVTVSS	high polyreactivity
QVQLVESGGGLVQAGGSLRLSCAASGIIFDEYAMGWYRQAPGKEMELVAGITIGGSTNYADSVKGRLTISRDNAKNTVYLQMNSLKPEDTAVYYCDYLGQGTQVTVSS	low polyreactivity
QVQLVESGGGLVQAGGSLRLSCAASGIIFDFYAMGWYRQAPGKEWELVAAITVSGGSTYYADSVKGRFTISRDNAKNTVYLQMNSLKPEDTAVYYCAAVGDWYVSYYEMDYWGQGTQVTVSS	low polyreactivity
QVQLVESGGGLVQAGGSLRLSCAASGIIFDGNAMGWYRQAPGKERELVAAISSGGSTNYADSVKGRFTISRDNAKNTVYLQMNSLKPEDTAVYYCAARYTGKYEREYIYWGQGTQVTVSS	high polyreactivity
QVQLVESGGGLVQAGGSLRLSCAASGIIFDINAMGWYRQAPGKERELVAAITTSVDSTYYADSVKGRFTISRDNAKNTVYLQMNSLKPEDTAVYYCAAGPGDSGDDYWGQGTQVTVSS	low polyreactivity
QVQLVESGGGLVQAGGSLRLSCAASGIIFDRYAMGWYRQAPGKERELVAAITYGGGSTYYADSVKGRFTISRDNAKNTVYLQMNSLKPEDTAVYYCAAVSTWFYQYYYWGQGTQVTVSS	high polyreactivity
QVQLVESGGGLVQAGGSLRLSCAASGIIFDTNAMGWYRQAPGKERELVATITQRGGTTYYADSVKGRFTISRDNAKNTVYLQMNSLKPEDTAVYYCNAGPVRLPYDSWGQGTQVTVSS	low polyreactivity
QVQLVESGGGLVQAGGSLRLSCAASGIIFDWYAMGWYRQAPGKERELVAAISDSGDTTYYADSVKGRFTISRDNAKNTVYLQMNSLKPEDTAVYYCNARVIGIYGYWGQGTQVTVSS	high polyreactivity
